{"source": "paper PMC4014539", "about": "“PEG-Protein Interaction Induced Contraction of NalD Chains” (PLoS ONE, 2014)", "proteins": {"B1": {"name": "NalD (natural protein)", "chain": "MRRTKEDSEKTRTAILLAAEELFLEKGVSHTSLEQIARAAGVTRGAVYWHFQNKAHLFNEMLNQVRLPPEQLTERLSGCDGSDPLRSLYDLCLEAVQSLLTQEKKRRILTILMQRCEFTEELREAQERNNAFVQMFIELCEQLFARDECRVRLHPGMTPRIASRALHALILGLFNDWLRDPRLFDPDTDAEHLLEPMFRGLVRDWGQASSAP", "notes": "NalD, TetR family repressor of the MexAB-OprM multi-drug efflux operon, Pseudomonas aeruginosa PAO1; a protein of 212 amino acids; nalD gene amplified by PCR and cloned into PET-30a between NdeI and XhoI; also called NalD protein; regulator of MexAB-OprM multi-drug efflux systems; source: E. coli BL21 star (DE3), purified (SFF, Heparin, Ni-NTA, monoQ columns)"}}, "molecular_target": "the molecule itself", "assay": "AUC; Beckman Optima XL-I, UV detection at 280 nm, 45,000 rpm, 20°C; NalD in aqueous solution before addition of PEG3350; apparent molar masses from peak positions"}
{"protein": "B1", "values": [{"measurement": "binding result", "value": "binds"}]}
